{"source": "paper PMC2683891", "proteins": {"B1": {"name": "Cj0915 (Campylobacter jejuni subsp. jejuni NCTC 11168 = ATCC 700819) (protein)", "chain": "MRDMGEPKLKIVAMPSDTNPAGNIFGGWILSQIDLAGAIAARELSPERVVTISMDKVVFKEPVFIGDIISCYSKVVNVGNTSISVEVEVTAQRVDSQGCTSCINVTSALVTYVSVTRDGKKNPISEELKRIHGFLNA"}}, "assay_in_all_cases": "purified protein", "assay_type_in_all_cases": "biochemical, Campylobacter jejuni", "details_in_all_cases": "100 mM HEPES pH 7.5, 200 mM KCl, 1.8 mM DTNB, 25 °C", "key": {"purified protein [1]": {"substrate": "CCCC(=O)SCCNC(=O)CCNC(=O)[C@H](O)C(C)(C)COP(=O)(O)OP(=O)(O)OC[C@H]1O[C@@H](n2cnc3c(N)ncnc32)[C@H](O)[C@@H]1OP(=O)(O)O"}, "purified protein [2]": {"substrate": "CCCCCC(=O)SCCNC(=O)CCNC(=O)[C@H](O)C(C)(C)COP(=O)(O)OP(=O)(O)OC[C@H]1O[C@@H](n2cnc3c(N)ncnc32)[C@H](O)[C@@H]1OP(=O)(O)O"}, "purified protein [3]": {"substrate": "CCCCCCCCCCCC(=O)SCCNC(=O)CCNC(=O)[C@H](O)C(C)(C)COP(=O)(O)OP(=O)(O)OC[C@H]1O[C@@H](n2cnc3c(N)ncnc32)[C@H](O)[C@@H]1OP(=O)(O)O"}, "purified protein [4]": {"substrate": "CCCCCCCCCCCCCCCC(=O)SCCNC(=O)CCNC(=O)[C@H](O)C(C)(C)COP(=O)(O)OP(=O)(O)OC[C@H]1O[C@@H](n2cnc3c(N)ncnc32)[C@H](O)[C@@H]1OP(=O)(O)O"}}}
{"protein": "B1", "values": [{"measurement": "Km", "setting": "purified protein [1]", "value": "40.8 ± 10.3", "unit": "µM"}, {"measurement": "Vmax", "setting": "purified protein [1]", "value": 55, "unit": "µmol/min/mg"}, {"measurement": "kcat", "setting": "purified protein [1]", "value": "13.6 ± 1.3", "unit": "s⁻¹"}, {"measurement": "kcat/Km", "setting": "purified protein [1]", "value": 330000, "unit": "M⁻¹ s⁻¹"}, {"measurement": "Km", "setting": "purified protein [2]", "value": "39.3 ± 15.2", "unit": "µM"}, {"measurement": "Vmax", "setting": "purified protein [2]", "value": 54.3, "unit": "µmol/min/mg"}, {"measurement": "kcat", "setting": "purified protein [2]", "value": "13.4 ± 2", "unit": "s⁻¹"}, {"measurement": "kcat/Km", "setting": "purified protein [2]", "value": 340000, "unit": "M⁻¹ s⁻¹"}, {"measurement": "Km", "setting": "purified protein [3]", "value": "13.9 ± 1.4", "unit": "µM"}, {"measurement": "Vmax", "setting": "purified protein [3]", "value": 63.3, "unit": "µmol/min/mg"}, {"measurement": "kcat", "setting": "purified protein [3]", "value": "15.6 ± 0.7", "unit": "s⁻¹"}, {"measurement": "kcat/Km", "setting": "purified protein [3]", "value": "1.1e+06", "unit": "M⁻¹ s⁻¹"}, {"measurement": "Km", "setting": "purified protein [4]", "value": "10.6 ± 0.6", "unit": "µM"}, {"measurement": "Vmax", "setting": "purified protein [4]", "value": 38.9, "unit": "µmol/min/mg"}, {"measurement": "kcat", "setting": "purified protein [4]", "value": "9.6 ± 0.3", "unit": "s⁻¹"}, {"measurement": "kcat/Km", "setting": "purified protein [4]", "value": 910000, "unit": "M⁻¹ s⁻¹"}]}
